Experimental findings from article PMC6684660, “ABCG1 contributes to suberin formation in Arabidopsis thaliana roots” (Scientific Reports, 2019) are described below.

Substrate in the data set: Nc1ncnc2c1ncn2[C@@H]1O[C@H](COP(=O)(O)OP(=O)(O)OP(=O)(O)O)[C@@H](O)[C@H]1O
Nature of the data set: malachite green ATPase assay. The data set is classed as biochemical, Arabidopsis thaliana. Conditions: ATP 0-8 mM, 10 mM MgCl2, 25 °C. An excerpt:
malachite green ATPase assay on AtABCG1

Setting [1] is: Fos-Choline-14, EQ/HA background subtracted.
The mark [2] stands for this setting: Fos-Choline-14, hydrolysis-deficient mutant used as background control.

Residue numbers refer to the chain shown, from its start. Numbers in names are those of the source.

B1: AtABCG1 (Arabidopsis thaliana) (protein)
chain: MARIVAANDDDSMELNTISSIHDSTLGQLLKNVSDVRKMAIGDETPVHESLNQDYNDGYMRTVPFVLSFDNLTYNVSVRPKLDFRNLFPRRRTEDPEIAQTARPKTKTLLNNISGETRDGEIMAVLGASGSGKSTLIDALANRIAKGSLKGTVKLNGETLQSRMLKVISAYVMQDDLLFPMLTVEETLMFAAEFRLPRSLPKSKKKLRVQALIDQLGIRNAAKTIIGDEGHRGISGGERRRVSIGIDIIHDPILLFLDEPTSGLDSTSAFMVVKVLKRIAQSGSIVIMSIHQPSHRVLGLLDRLIFLSRGHTVYSGSPASLPRFFTEFGSPIPENENRTEFALDLIRELEGSAGGTRGLIEFNKKWQEMKKQSNRQPPLTPPSSPYPNLTLKEAIAASISRGKLVSGGESVAHGGATTNTTTLAVPAFANPMWIEIKTLSKRSMLNSRRQPELFGIRIASVVITGFILATVFWRLDNSPKGVQERLGFFAFAMSTMFYTCADALPVFLQERYIFMRETAYNAYRRSSYVLSHAIVSFPSLIFLSVAFAATTYWAVGLDGGLTGLLFYCLIILASFWSGSSFVTFLSGVVPSVMLGYTIVVAILAYFLLFSGFFINRNRIPDYWIWFHYMSLVKYPYEAVLQNEFSDATKCFVRGVQIFDNTPLGELPEVMKLKLLGTVSKSLGVTISSTTCLTTGSDILRQQGVVQLSKWNCLFITVAFGFFFRILFYFTLLLGSKNKRR
notes: full-length half-size transporter, N-terminal tag (CBP, His detected) kept, expressed in Pichia pastoris X33, purified in Fos-Choline-14, 86 kDa with tag, homodimer
Turning to B1, under setting [1], the Km (as a rule, the substrate concentration at which the rate is half of its maximum) stood at 1800 ± 100 µM and the Vmax (in general, the rate approached at saturating substrate) was determined as 0.0188 µmol/min/mg.

B2: AtABCG1 (Arabidopsis thaliana; E259Q/H291A) (protein)
chain: B1 chain with E259Q, H291A
notes: as for B1
Consider B2, for which, under setting [2], the Michaelis-Menten constant (Km) was determined as 700 ± 400 µM and the maximum rate (Vmax) came to 0.0017 µmol/min/mg.
